The target in assay [1] is T1, hSIRPα expressed on primary human cells (human, UniProt P78324 31-504).
T1 construct: whole, on cells; also called hSIRPα on primary human CD14+ monocytes; on primary human granulocytes
As to the kind of experiment: flow cytometry on CD14+ enriched monocytes, human donor 2, AF647 goat-anti-mouse IgG. On the procedure:
Next, the binding of hSIRPα.40A to hSIRPα expressed on primary human CD14⁺ monocytes was investigated. In addition, the ability of hSIRPα.40A to block the interaction between hSIRPα and recombinant hCD47/Fc-protein was assessed. For this purpose, CD14+ monocytes were isolated from Ficoll-purified human peripheral blood mononuclear cells (PBMCs) using RosetteSep human monocyte enrichment cocktail (Stemcell). The percentage of monocytes present after the enrichment was determined by flow cytometry on the FACSVerse (BD Biosciences) based on CD14 staining using an APC-Cy7-conjugated mouse-anti-human CD14 detection antibody (BD Biosciences). […] After this labeling procedure, cells were washed two times, resuspended in PBS/1% BSA containing 0.1 μg/mL DAPI (BioLegend), and analysed by flow cytometry on the FACSVerse (BD Biosciences). Data were processed and analysed with FlowJo V10 software (FlowJo, LLC).
To assess the blocking ability of hSIRPα.40A, CD14+ enriched monocytes cells were seeded in 96-well round bottomed tissue culture plates and incubated for 45 minutes with FcR Blocking Reagent (Miltenyi Biotec) and hSIRPα.40A antibody (20 μg/mL and dilutions thereof) in PBS/1% BSA at 4° C. […] After this labeling procedure, cells were washed two times, resuspended in PBS/1% BSA containing 0.1 μg/mL DAPI (BioLegend), and analysed by flow cytometry on the FACSVerse (BD Biosciences). […]
A general note: In flow cytometry, cells or beads pass a laser one at a time.

Assay [2] concerns the target T2, human SIRPα variant 1 (human, UniProt P78324 31-504).
T2 construct: full length ORF on transfected CHO-K1 or HEK293 cells; entry includes the signal peptide; also called hSIRPαV1; SIRPαV1
Description: flow cytometry, blockade of DyLight488-hCD47/Fc binding to U-937 cells. The procedure:
For this purpose, THP-1 (ATCC TIB-202) and U-937 (ATCC CRL-1593.2) monocyte cell lines were used as the source of hSIRPα in the assay. THP-1 and U-937 cells were seeded in 96-well round bottomed tissue culture plates and incubated for 45 minutes with FcR Blocking Reagent (Miltenyi Biotec) and hSIRPα.50A antibody (200 μg/mL and dilutions thereof) in PBS/1% BSA at 4° C. […] After this labeling procedure, cells were washed two times, resuspended in PBS/1% BSA containing 0.1 μg/mL DAPI (BioLegend), and analysed by flow cytometry on the FACSCanto II (BD Biosciences). Data were processed and analysed with FlowJo V10 software (FlowJo, LLC).
As depicted in FIG. 4 and the following Table 11, binding of recombinant hCD47 fused to an Fc domain of human IgG1 was monitored in the presence of increasing amounts of the hSIRPα.50A antibody. Antibody hSIRPα.50A blocked the hSIRPα/hCD47 interaction, using the flow cytometry-based method described above. […] IC50 values represent the concentration at which half of the inhibition is observed.

The next assay addresses T3, human SIRPα variant 2 (human, UniProt P78324 31-504).
T3 construct: full length ORF on transfected CHO-K1 cells; also called hSIRPαV2; SIRPαV2
As to the kind of experiment: CELISA, CHO-K1 transfectants; average of two experiments. The procedure: (§1) Binding of the humanized antibodies to hSIRPα was studied in CELISA format. Binding of the hSIRPα antibodies to human SIRPαV1, SIRPαV2, hSIRPβ1, and hSIRPγ was confirmed using CHO-K1 cells that had been transiently transfected with cDNA encoding the full length open reading frame of each of these respective targets subcloned into the pCI-neo vector. CHO-K1.hSIRPαV1, CHO-K1.hSIRPαV2, CHO-K1.hSIRPβ1, and CHO-K1.hSIRPγ cells were seeded in culture medium (DMEM-F12 (Gibco) supplemented with 5% New Born Calf Serum (BioWest) and Pen/Strep (Gibco)) in 96-well flat-bottom tissue culture plates and incubated at 37° C., 5% CO₂ and 95% humidity until cell layers were confluent. Subsequently, culture medium was removed and cells were incubated for 1 hour at 37° C., 5% CO₂ and 95% humidity with purified hSIRPα antibodies (10 μg/mL and dilutions thereof). Next, cells were washed with PBS-T and incubated for 1 hour at 37° C., 5% CO₂ and 95% humidity with goat-anti-human IgG-HRP conjugate (Jackson Immuno Research) or goat-anti-mouse IgG-HRP (Southern Biotech). Subsequently, cells were washed three times with PBS-T and anti-hSIRPα immunoreactivity was visualized with TMB Stabilized Chromogen (Invitrogen). Reactions were stopped with 0.5 M H₂SO₄ and absorbances were read at 450 and 610 nm. […] In Table 13 the EC50 values of the humanized hSIRPα antibodies are depicted.
(§2) Table 13: Binding of humanized and parental hSIRPα.50A antibodies to CHO-K1.hSIRPαV1, CHO-K1.hSIRPαV2, CHO-K1.hSIRPβ1, and CHO-K1.hSIRPγ cells.

Assay [3] has as its target T2, human SIRPα variant 1. The assay is described as above. The procedure:
as §1, §2

T2 sequence (P78324 31-504 limits assumed, change not shown): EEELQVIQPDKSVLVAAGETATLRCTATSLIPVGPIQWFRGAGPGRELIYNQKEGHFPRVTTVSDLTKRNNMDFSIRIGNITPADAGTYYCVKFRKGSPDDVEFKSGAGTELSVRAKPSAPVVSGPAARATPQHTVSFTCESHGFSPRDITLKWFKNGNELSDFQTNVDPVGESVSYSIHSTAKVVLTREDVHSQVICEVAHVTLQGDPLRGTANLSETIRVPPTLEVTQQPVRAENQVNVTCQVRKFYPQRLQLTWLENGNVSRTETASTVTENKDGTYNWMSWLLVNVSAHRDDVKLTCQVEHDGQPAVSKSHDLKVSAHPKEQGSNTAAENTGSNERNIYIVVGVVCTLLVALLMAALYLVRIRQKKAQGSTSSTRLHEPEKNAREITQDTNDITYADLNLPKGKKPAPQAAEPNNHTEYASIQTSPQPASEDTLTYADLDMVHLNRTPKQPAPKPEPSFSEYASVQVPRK
T1 sequence (P78324 31-504): as the sequence (P78324 31-504 limits assumed, change not shown) above
T3 sequence (P78324 other isoform, or with tags, fused parts or gaps mutant limits assumed): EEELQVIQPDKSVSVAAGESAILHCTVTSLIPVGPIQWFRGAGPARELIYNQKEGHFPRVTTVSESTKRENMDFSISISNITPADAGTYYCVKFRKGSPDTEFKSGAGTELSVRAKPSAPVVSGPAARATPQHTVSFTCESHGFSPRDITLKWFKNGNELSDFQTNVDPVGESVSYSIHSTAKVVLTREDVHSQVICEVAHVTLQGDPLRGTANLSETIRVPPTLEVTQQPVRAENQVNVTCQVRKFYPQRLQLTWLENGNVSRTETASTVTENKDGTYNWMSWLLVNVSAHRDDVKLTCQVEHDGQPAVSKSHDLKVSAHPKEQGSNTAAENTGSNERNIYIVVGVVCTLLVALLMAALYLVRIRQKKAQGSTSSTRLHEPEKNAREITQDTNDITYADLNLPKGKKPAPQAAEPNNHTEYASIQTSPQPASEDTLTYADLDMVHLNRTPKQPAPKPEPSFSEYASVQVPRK

B1: hSIRPα.40A (antibody, mouse IgG1, kappa, V domains shown)
VH: EVQFQQSGTVLARPGTSVKMSCKASGSTFTSYWMHWVKQGPGQGLQWIGAIYPVNNDTTYNQKFKGKAELTVVTSTSTAYMEVSSLTNEDSAVYYCTRSFYYSLDAAWFVYWGQGTLVTVSA
VL: DIQMTQSPSSLSASLGERVSLTCRASQDIGSRLNWLQQEPDGTIKRLIYATSSLDSGVPKRFSGSRSGSDYSLTISGLESEDFVDYYCLQYASSPFTFGGGTKLEINR
notes: mouse antibody, full chains without signal peptide; also called mouse hSIRPα.40A
As usually defined, the EC50 (read off the curve) is the concentration that produces a half-maximal response. High values mean weaker potency, low ones greater potency. Regarding B1, the “EC50 (read off the curve)” value in assay [1] was approximately 0.7 nM.

B2: hSIRPα.50A (antibody, V domains shown)
VH: QVQLQQSGPELVKPGASVRISCKASGFTFTNYYIHWVKQRPGQGLEWIGWIYPGNVNTKYNEKFKAKATLTADKSSTTAYMQLSSLASEDSAVYFCARPTIIATDFDVWGAGTTVTVSS
VL: DIVMTQSHKFMSTSVGDRVNITCKASQGVGTAVGWYQQKPGQSPRLLIYWASTRHTGVPDRFTGSGSGTDFSLAISNVQSEDLADYFCQQYSTYPFTFGGGTNLEIK
notes: light chain constant domain not tied; also called mouse hSIRPα.50A; hSIRPα.50A.mIgG1
A word on the IC50: it is the concentration at which inhibition is half-maximal. One may read the EC50 as the concentration at which the effect is half-maximal. As for B2, the IC50 in the assay with human SIRPα variant 1 [2] amounted to 7.16 nM. Moreover, the concentration for a half-maximal effect (EC50) with human SIRPα variant 2 stood at 1.3 nM; in the assay with human SIRPα variant 1 [3], 1.36 nM.

The record behind these values is patent publication US20180312587A1 (ADURO BIOTECH HOLDINGS EUROPE B V, published 2018).
